According to PMC5797543:

Key:
[1] = biological target: recombinant HLA-B*15:01 (heavy chain with human β2-microglobulin light chain) (human)
[2] = biological target: recombinant HLA-A*01:01 (heavy chain with human β2-microglobulin light chain) (human)

Binder | melting temperature (Tm) of the purified p/MHC complex, differential scanning fluorimetry [1] | thermal stability (Tm) of the purified p/MHC complex, differential scanning fluorimetry [2]
AQDIYRASY [ALK R1275Q-derived nonamer neoepitope (…)] | 53.4 °C | 46.7 °C
AQDIYRASYY [ALK R1275Q-derived decamer neoepitope (…)] | 59.3 °C | 47.9 °C
